Source: patent publication US20220332837A1

Target: OX40-6His Protein-196AAs-21.82 kDa (recombinant canine OX40) (canine)
Assay: phage ELISA, OX-40 coated (control)

Chain of OX40-6His Protein-196AAs-21.82 kDa (recombinant canine OX40) (canine) (chain, as listed by the source limits assumed): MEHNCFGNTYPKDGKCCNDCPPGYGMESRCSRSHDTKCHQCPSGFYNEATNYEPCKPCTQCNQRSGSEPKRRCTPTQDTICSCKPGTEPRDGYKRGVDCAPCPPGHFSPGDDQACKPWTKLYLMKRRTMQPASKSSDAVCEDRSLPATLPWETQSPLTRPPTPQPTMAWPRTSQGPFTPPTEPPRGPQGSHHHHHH

Substance: M13KO7
- ELISA signal, Coating: OX-40: 0.35
